# Data as given in US20200361992A1 (PROTAGONIST THERAPEUTICS, published 2020).
# Starred links: 1 amine or outer side, 2 acyl side, 3 side chain; linkers in the order of their positions; H or OH if unused. Positions of bridges follow the written chain, without caps; N, C: chain ends. Non-standard residues stand in square brackets, D forms with d. Groups on a side chain read outwards from the residue. Primed or numbered codes have the meaning given here. No end group written: not given here. *: point of attachment. Npc″ = L-nipecotic acid, O=C([C@H]1CCCN([*:1])C1)[*:2]; PEG12 = NCCOCCOCCOCCOCCOCCOCCOCCOCCOCCOCCOCCOCCC(=O)O; γGlu = O=C(O)[C@H](CCC(=O)[*:2])N[*:1]; Palmitoyl = CCCCCCCCCCCCCCCC(=O)*; NMeF = CN[C@@H](Cc1ccccc1)C(=O)O; β3hF = N[C@H](CC(=O)O)Cc1ccccc1; Isovaleryl = CC(C)CC(=O)*; Npc = nipecotic acid
# T1: human ferroportin (SLC40A1) fused in frame with the GFP protein, stably expressed in HEK293 cells (human, UniProt Q9NP59 1-571)
# T1 sequence (looked up): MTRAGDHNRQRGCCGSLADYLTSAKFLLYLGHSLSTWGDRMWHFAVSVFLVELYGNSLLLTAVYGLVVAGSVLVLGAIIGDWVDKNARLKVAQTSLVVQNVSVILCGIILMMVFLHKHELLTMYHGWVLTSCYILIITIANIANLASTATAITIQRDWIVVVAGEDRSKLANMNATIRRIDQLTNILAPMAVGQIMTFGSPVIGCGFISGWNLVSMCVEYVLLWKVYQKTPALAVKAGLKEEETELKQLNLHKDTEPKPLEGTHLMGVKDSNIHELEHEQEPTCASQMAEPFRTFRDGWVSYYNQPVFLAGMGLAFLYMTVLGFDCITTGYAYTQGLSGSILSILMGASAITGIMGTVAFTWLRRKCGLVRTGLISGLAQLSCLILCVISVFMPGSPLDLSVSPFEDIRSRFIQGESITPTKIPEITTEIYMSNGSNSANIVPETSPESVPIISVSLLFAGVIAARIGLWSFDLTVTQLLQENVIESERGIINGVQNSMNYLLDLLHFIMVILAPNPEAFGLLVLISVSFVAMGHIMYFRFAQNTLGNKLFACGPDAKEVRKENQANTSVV
# B1: Compd ID 171 (peptide)
# peptide: DTHXPCIKFKCK
# modifications: N-terminal isovaleric acid; bhPhe 4; (D)Lys 8; Lys(Peg11-Palm) 10; (D)Lys 12; C-terminal amide; disulfide between the two Cys (6 and 11)
# B2: Compd ID 169 (peptide)
# peptide: DTHXPCIKXKKC
# modifications: N-terminal isovaleric acid; D-Asp 1; Dpa 4; (D)Lys 8; bhPhe 9; Lys(Peg11-Palm) 10; (D)Lys 11; C-terminal amide; disulfide between the two Cys (6 and 12)
# B3: Compd ID 175 (peptide)
# peptide: DTHXPCIKXKKC
# modifications: N-terminal isovaleric acid; Dpa 4; (D)Lys 8; bhPhe 9; Lys(Peg11-Palm) 10; dLys_Ac 11; C-terminal amide; disulfide between the two Cys (6 and 12)
# B4: Compd ID 170 (peptide)
# peptide: DTHXPCIKXKCK
# modifications: N-terminal isovaleric acid; Dpa 4; (D)Lys 8; bhPhe 9; Lys(Peg11-Palm) 10; (D)Lys 12; C-terminal amide; disulfide between the two Cys (6 and 11)
# B5: Compd ID 225 (peptide)
# peptide: Isovaleryl-DTHFPCI[dK]([PEG12-Palmitoyl])F[dK]C-NH2
# modifications: disulfide 6-11
# SMILES: CCCCCCCCCCCCCCCC(=O)NCCOCCOCCOCCOCCOCCOCCOCCOCCOCCOCCOCCOCCC(=O)NCCCC[C@H]1NC(=O)[C@H]([C@@H](C)CC)NC(=O)[C@@H](NC(=O)[C@@H]2CCCN2C(=O)[C@H](Cc2ccccc2)NC(=O)[C@H](Cc2c[nH]cn2)NC(=O)[C@@H](NC(=O)[C@H](CC(=O)O)NC(=O)CC(C)C)[C@@H](C)O)CSSC[C@@H](C(N)=O)NC(=O)[C@@H](CCCCN)NC(=O)[C@H](Cc2ccccc2)NC1=O
# B6: Compd ID 227 (peptide)
# peptide: Isovaleryl-DTHFPCIK([γGlu-Palmitoyl])FKC-NH2
# modifications: disulfide 6-11
# SMILES: CCCCCCCCCCCCCCCC(=O)N[C@@H](CCC(=O)NCCCC[C@@H]1NC(=O)[C@H]([C@@H](C)CC)NC(=O)[C@@H](NC(=O)[C@@H]2CCCN2C(=O)[C@H](Cc2ccccc2)NC(=O)[C@H](Cc2c[nH]cn2)NC(=O)[C@@H](NC(=O)[C@H](CC(=O)O)NC(=O)CC(C)C)[C@@H](C)O)CSSC[C@@H](C(N)=O)NC(=O)[C@H](CCCCN)NC(=O)[C@H](Cc2ccccc2)NC1=O)C(=O)O
# B7: Compd ID 515 (peptide)
# chain: DTHXPCIKX
# modifications: N-terminal isovaleric acid on each monomer; BIP 4; D-Lys 8; NMe-Phe 9; the two monomers linked through IDA-[(b-Ala)-Palm]; -NH2
# B8: Compd ID 502 (peptide)
# chain: DTHFPCIKF
# modifications: N-terminal isovaleric acid on each monomer; the two monomers linked through [D-Lys]-Lys[isoGlu-Palm]-NH2
# B9: Compd ID 518 (peptide)
# chain: Isovaleryl-DTHF[Npc″]CI[dK][NMeF]
# modifications: not fully specified (C-terminus); also: dimer: two monomers linked through IDA-[(b-Ala)-Palm]-NH2
# B10: Compd ID 509 (peptide)
# chain: DTHFPCIIFK
# modifications: N-terminal isovaleric acid on each monomer; D-Lys 10; the two monomers linked through IDA-[(b-Ala)-Palm]; -NH2
# B11: Compd ID 514 (peptide)
# chain: DTHFPCIKX
# modifications: N-terminal isovaleric acid on each monomer; D-Lys 8; NMe-Phe 9; the two monomers linked through IDA-[(b-Ala)-Palm]; -NH2
# B12: Compd ID 516 (peptide)
# chain: DTHFPCIKX
# modifications: N-terminal isovaleric acid on each monomer; b-homoPhe 9; the two monomers linked through IDA-[(b-Ala)-Palm]; -NH2
# B13: Compd ID 503 (peptide)
# chain: DTHFPCIKF
# modifications: N-terminal isovaleric acid on each monomer; D-Lys 8; the two monomers linked through Lys[isoGlu-Palm]-NH2
# B14: Compd ID 517 (peptide)
# chain: DTHFPCIKX
# modifications: not fully specified; N-terminal isovaleric acid on each monomer; D-Lys 8; b-homoPhe 9; the two monomers linked through IDA-[(b-Ala)-Palm]; -NH2
# B15: Compd ID 501 (peptide)
# chain: DTHFPCIKF
# modifications: N-terminal isovaleric acid on each monomer; the two monomers linked through K-Lys[isoGlu-Palm]-NH2
# B16: Compd ID 508 (peptide)
# chain: DTHFPCIKX
# modifications: N-terminal isovaleric acid on each monomer; a-MePhe 9; the two monomers linked through IDA-[(b-Ala)-Palm]; -NH2
# B17: Compd ID 507 (peptide)
# chain: DTHFPCIKX
# modifications: N-terminal isovaleric acid on each monomer; NMe-Phe 9; the two monomers linked through IDA-[(b-Ala)-Palm]; -NH2
# B18: Ref. Compd 1 (peptide)
# peptide: DTHFPCIKFKPRSKGCK
# modifications: N-terminal isovaleric acid; Lys[PEG11-Palm] 10; C-terminal amide; disulfide between the two Cys (6 and 16)
# B19: RI-Mini Hepcidin (peptide)
# peptide: FICIPFHTD
# modifications: all residues D-amino acids (retro inverse); free N-terminus (Hy-); C-terminal amide
# Target: T1, human ferroportin (SLC40A1) fused in …
# Assay: cell-based or functional assay
row,Binder,FPN IC50 [nM]
1,B1,47
2,B2,12
3,B3,5
4,B4,10
5,Isovaleryl-DTH[β3hF][Npc]CI[dK]FK([PEG12-Palmitoyl])C[dK]-NH2 (disulfide 6-11) [Compd ID 172],39

# Target: T1, human ferroportin (SLC40A1) fused in …
# Assay: cell-based or functional assay
# Remark: another data set of the same source
row,Binder,FPN IC50 [nM]
1,B5,26
2,B6,114
3,Isovaleryl-DTHFPCI[dK]([PEG12-Palmitoyl])F[dR]C-NH2 (disulfide 6-11; not fully specified) [Compd ID 226],23

# Target: T1, human ferroportin (SLC40A1) fused in …
# Assay: cell-based or functional assay
# Remark: another data set of the same source
row,Binder,FPN IC50 [nM]
1,B7,26
2,B8,33
3,B9,8
4,B10,433
5,B11,4
6,B12,6
7,Isovaleryl-DTHFPCIK[Phe(4-OCH2CH2NH2)]K-{Lys(isoGlu-Palm)-NH2} (also: dimer: two monomers linked through K-Lys[isoGlu-Palm]-NH2) [Compd ID 504],20
8,B13,21
9,B14,5
10,B15,28
11,B16,9
12,B17,10
13,Isovaleryl-DTHFPCI[dK]F-{IDA(βAla-Palm)-NH2} (also: dimer: two monomers joined through IDA) [Compd ID 506],4

# Target: T1, human ferroportin (SLC40A1) fused in …
# Assay: cell-based or functional assay
# Remark: another data set of the same source
Binder,Potency EC50 [nM],Potency EC50 (nM)
H-DTHFPICIF-NH2 [Mini-Hepcidin 1-9],712,–
B18,30,–
B19,–,> 10000
